B1: Fructokinase-like 1, chloroplastic (Arabidopsis thaliana (Mouse-ear cress)), Q9M394 (parent)
chain: MASLLIFPHLHHFDSSLDRREVLVVRHSQASRRFLTPKASINGSGITNGAAAETTSKPSRKGRKKKQTSTVIEKDNTETDPELNPELADYDDGIEFPYDDPPLVCCFGAVQKEFVPVVRVHDNPMHPDMYSQWKMLQWDPPEFGRAPGGPPSNVAISHVRLGGRAAFMGKVGEDDFGDELVLMMNQERVQTRAVKFDENSKTACTRVKIKFKDGKMMAETVKEPPEDSLFASELNLAVLKEARIFHFNSEVLTSPTMQSTLFTAIQWSKKFGGLIFFDLNLPLPLWRSRNETRKLIKKAWNEANIIEVSQQELEFLLDEDYYERRRNYTPQYFAEDFDQTKNRRDYYHYTPEEIKSLWHDKLKLLVVTDGTLRLHYYTPTFDGVVIGTEDVLITPFTCDRTGSGDAVVAGIMRKLTTCPEMFEDQDVMERQLRFAVAAGIIAQWTIGAVRGFPTESATQNLKEQVYVPSMW
partner: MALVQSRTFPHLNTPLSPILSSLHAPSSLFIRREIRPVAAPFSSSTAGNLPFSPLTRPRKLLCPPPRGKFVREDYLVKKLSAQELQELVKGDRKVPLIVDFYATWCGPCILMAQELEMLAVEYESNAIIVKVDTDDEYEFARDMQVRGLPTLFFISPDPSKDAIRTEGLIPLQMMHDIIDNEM
B2: Thioredoxin-like protein CITRX, chloroplastic (Arabidopsis thaliana (Mouse-ear cress)), Q9M7X9 (parent)
chain: B1 partner
partner: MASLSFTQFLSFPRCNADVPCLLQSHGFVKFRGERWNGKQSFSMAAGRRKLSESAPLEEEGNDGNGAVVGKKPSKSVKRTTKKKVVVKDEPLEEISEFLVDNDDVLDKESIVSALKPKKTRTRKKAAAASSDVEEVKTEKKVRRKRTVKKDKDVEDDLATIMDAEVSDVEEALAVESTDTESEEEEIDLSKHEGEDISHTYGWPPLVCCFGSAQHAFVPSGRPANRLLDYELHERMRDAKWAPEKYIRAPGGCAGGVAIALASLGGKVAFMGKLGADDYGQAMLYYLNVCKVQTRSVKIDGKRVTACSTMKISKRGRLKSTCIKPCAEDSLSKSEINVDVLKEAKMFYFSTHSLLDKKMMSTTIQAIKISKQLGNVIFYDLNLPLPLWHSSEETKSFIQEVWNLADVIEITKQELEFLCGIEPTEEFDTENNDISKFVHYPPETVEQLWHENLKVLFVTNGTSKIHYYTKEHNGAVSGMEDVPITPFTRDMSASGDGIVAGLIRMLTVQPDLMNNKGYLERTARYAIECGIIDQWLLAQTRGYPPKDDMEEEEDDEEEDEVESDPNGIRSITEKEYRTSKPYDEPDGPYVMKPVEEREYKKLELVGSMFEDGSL
B3: Thioredoxin-like protein CITRX, chloroplastic (Arabidopsis thaliana (Mouse-ear cress)), Q9M7X9 (parent)
chain: B1 partner
partner: B1 chain
B4: Fructokinase-like 2, chloroplastic (Arabidopsis thaliana (Mouse-ear cress)), F4I0K2 (parent)
chain: B2 partner
partner: B1 partner

Variants of: B1
Details: with citrx_arath CITRX, Q9M7X9

effect of a mutation on the interaction	Variant
decreasing interaction	C106A
disrupting interaction	C105A;C106S

Variants of: B2
Details: with sckl2_arath FLN2, F4I0K2

effect of a mutation on the interaction	Variant
decreasing interaction	C106S

Variants of: B3
Details: with sckl1_arath FLN1, Q9M394

effect of a mutation on the interaction	Variant
decreasing interaction	C106S

Variants of: B4
Details: with citrx_arath CITRX, Q9M7X9

effect of a mutation on the interaction	Variant
decreasing interaction	C208A
decreasing interaction	C209A
disrupting interaction	C208A;C209A
